Experimental data: the supplement of paper PMC10126150
± gives the standard deviation of the averaged measurements.

Test system: ATP
Assay: switch fluorescence ratio, 500 uM ATP over buffer (Cy3 cluster intensity, sum of 5 cycles each) (fold (ratio)); higher = stronger signal-on switching upon ATP binding; sequences stand for … in TCGTCGGCAGCGTCAGATGTGTATAAGAGACAGTTTTTTTTTTTTTTTTTTTTTTTTT…TC
Details: aptamer strand: ATP DNA aptamer (quencher-CACCTGGGGGAGTATTGCGGAGGAAGG + anchor), 100 nM annealed; ATP concentration: 500 uM
In short: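 The fluorescence ratio divides summed target-cycle Cy3 intensity by summed buffer-cycle Cy3 intensity for each cluster and is averaged per switch-domain sequence. Cy3-labelled switching-strand clusters on a modified Illumina MiSeq flow-cell were annealed to 100 nM quencher-labelled ATP aptamer, then imaged in selection buffer and again after 15 min with 500 uM ATP at 22 °C. Five such cycles were run, with NaOH stripping and re-annealing between them, and clusters outside 100-1000 RFU were excluded.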
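Note: ATP exposure 15 min at 22 °C before imaging.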

Sequence: CGAGGGGGG
- switch fluorescence ratio: 0.997 ± 0.015

Sequence: CGAGGGGGGT
- switch fluorescence ratio: 1.02 ± 0.027

Sequence: CGAGGGGGTA
- switch fluorescence ratio: 1.02 ± 0.077

Sequence: CGAGGGTAGG
- switch fluorescence ratio: 1.04 ± 0.025

Sequence: CGAGGGTCGG
- switch fluorescence ratio: 1.01 ± 0.042

Sequence: CGAGGGTGAG
- switch fluorescence ratio: 1.01 ± 0.042

Sequence: CGAGGTAGTT
- switch fluorescence ratio: 0.975 ± 0.026

Sequence: CGAGGTCAGT
- switch fluorescence ratio: 1.044 ± 0.01

Sequence: CGAGGTGGCG
- switch fluorescence ratio: 0.958 ± 0.06

Sequence: CGAGGTTTTC
- switch fluorescence ratio: 0.9817 ± 0.0056

Sequence: CGAGTAGGAA
- switch fluorescence ratio: 0.984 ± 0.017

Sequence: CGAGTAGGTT
- switch fluorescence ratio: 1.01 ± 0.011

Sequence: CGAGTATGGA
- switch fluorescence ratio: 0.9923 ± 0.0042

Sequence: CGAGTCAGA
- switch fluorescence ratio: 1.067 ± 0.0096

Sequence: CGAGTCGACG
- switch fluorescence ratio: 0.99 ± 0.07

Sequence: CGAGTCGCGA
- switch fluorescence ratio: 1.04 ± 0.062

Sequence: CGAGTGAAAT
- switch fluorescence ratio: 1 ± 0.018

Sequence: CGAGTGAATC
- switch fluorescence ratio: 1.01 ± 0.019

Sequence: CGAGTGGAGG
- switch fluorescence ratio: 1.03 ± 0.011

Sequence: CGAGTGGCGA
- switch fluorescence ratio: 1.077 ± 0.0022

Sequence: CGAGTGGCGG
- switch fluorescence ratio: 0.968 ± 0.023

Sequence: CGAGTGGGGA
- switch fluorescence ratio: 1.04 ± 0.041

Sequence: CGAGTTAATT
- switch fluorescence ratio: 1.014 ± 0.0097

Sequence: CGAGTTAGGG
- switch fluorescence ratio: 0.9906 ± 0.0021

Sequence: CGAGTTTTGC
- switch fluorescence ratio: 1.03 ± 0.026

Sequence: CGAGTTTTTT
- switch fluorescence ratio: 1 ± 0.021

Sequence: CGATACACGT
- switch fluorescence ratio: 1.04 ± 0.029

Sequence: CGATAGATGA
- switch fluorescence ratio: 0.993 ± 0.018

Sequence: CGATATATTA
- switch fluorescence ratio: 0.9874 ± 0.0053

Sequence: CGATATATTG
- switch fluorescence ratio: 0.988 ± 0.013

Sequence: CGATATTGCC
- switch fluorescence ratio: 0.9909 ± 0.0097

Sequence: CGATCAATAT
- switch fluorescence ratio: 2.38 ± 0.035

Sequence: CGATCCGCGG
- switch fluorescence ratio: 0.942 ± 0.14

Sequence: CGATGAGTTT
- switch fluorescence ratio: 1.01 ± 0.033

Sequence: CGATGATGGA
- switch fluorescence ratio: 0.999 ± 0.017

Sequence: CGATGCGGTG
- switch fluorescence ratio: 1.05 ± 0.033

Sequence: CGATGGCGTT
- switch fluorescence ratio: 0.96 ± 0.016

Sequence: CGATGGCTA
- switch fluorescence ratio: 0.965 ± 0.041

Sequence: CGATGTAGGT
- switch fluorescence ratio: 1.02 ± 0.025

Sequence: CGATGTAGTA
- switch fluorescence ratio: 1.016 ± 0.0058

Sequence: CGATGTATTT
- switch fluorescence ratio: 1.01 ± 0.048

Sequence: CGATGTGGGT
- switch fluorescence ratio: 0.989 ± 0.044

Sequence: CGATGTTTAG
- switch fluorescence ratio: 0.986 ± 0.019

Sequence: CGATTACGAT
- switch fluorescence ratio: 1.01 ± 0.03

Sequence: CGATTAGGGG
- switch fluorescence ratio: 1 ± 0.012

Sequence: CGATTAGTTG
- switch fluorescence ratio: 0.998 ± 0.032

Sequence: CGATTCTCAA
- switch fluorescence ratio: 1.021 ± 0.0006

Sequence: CGATTCTGAG
- switch fluorescence ratio: 1 ± 0.024

Sequence: CGATTGCGTG
- switch fluorescence ratio: 1 ± 0.05

Sequence: CGATTGTCTG
- switch fluorescence ratio: 0.958 ± 0.02

Sequence: CGATTGTGCG
- switch fluorescence ratio: 1.04 ± 0.029

Sequence: CGATTTCAGA
- switch fluorescence ratio: 1.009 ± 0.01

Sequence: CGATTTGGGT
- switch fluorescence ratio: 1.02 ± 0.042

Sequence: CGATTTGTAA
- switch fluorescence ratio: 0.99 ± 0.031

Sequence: CGATTTTCCT
- switch fluorescence ratio: 1.01 ± 0.015

Sequence: CGATTTTGAT
- switch fluorescence ratio: 1.01 ± 0.013

Sequence: CGCAAAATTT
- switch fluorescence ratio: 1.11 ± 0.11

Sequence: CGCAAAGGGG
- switch fluorescence ratio: 1.39 ± 0.29

Sequence: CGCACAGTCA
- switch fluorescence ratio: 1.06 ± 0.023

Sequence: CGCACGGGGG
- switch fluorescence ratio: 1.01 ± 0.031

Sequence: CGCAGTTTTA
- switch fluorescence ratio: 1.055 ± 0.0065

Sequence: CGCATGTACG
- switch fluorescence ratio: 1.14 ± 0.16

Sequence: CGCATTAAGG
- switch fluorescence ratio: 1.11 ± 0.03

Sequence: CGCCAGCAGC
- switch fluorescence ratio: 1.6 ± 0.035

Sequence: CGCCCTCAAG
- switch fluorescence ratio: 1.03 ± 0.029

Sequence: CGCCGAGTTT
- switch fluorescence ratio: 1.05 ± 0.071

Sequence: CGCCGTCTGG
- switch fluorescence ratio: 1.03 ± 0.0039

Sequence: CGCCTCGAGG
- switch fluorescence ratio: 0.9786 ± 0.0027

Sequence: CGCCTGGCTT
- switch fluorescence ratio: 1 ± 0.013

Sequence: CGCCTTAATT
- switch fluorescence ratio: 1.01 ± 0.042

Sequence: CGCGAGGGCC
- switch fluorescence ratio: 1.1 ± 0.08

Sequence: CGCGATATTG
- switch fluorescence ratio: 1.58 ± 0.018

Sequence: CGCGCGGAAC
- switch fluorescence ratio: 0.98 ± 0.019

Sequence: CGCGGAGGGT
- switch fluorescence ratio: 0.967 ± 0.016

Sequence: CGCGGCAGGA
- switch fluorescence ratio: 1.02 ± 0.019

Sequence: CGCGGGATGT
- switch fluorescence ratio: 1.02 ± 0.045

Sequence: CGCGGGGAGC
- switch fluorescence ratio: 1.07 ± 0.088

Sequence: CGCGGGGGGT
- switch fluorescence ratio: 0.992 ± 0.018

Sequence: CGCGGGTATT
- switch fluorescence ratio: 1.02 ± 0.017

Sequence: CGCGGGTGGT
- switch fluorescence ratio: 1.02 ± 0.012

Sequence: CGCGGGTTCA
- switch fluorescence ratio: 1.03 ± 0.037

Sequence: CGCGGTTGAC
- switch fluorescence ratio: 1.12 ± 0.03

Sequence: CGCGTACATT
- switch fluorescence ratio: 1.05 ± 0.077

Sequence: CGCGTACGGA
- switch fluorescence ratio: 0.989 ± 0.005

Sequence: CGCGTTATGT
- switch fluorescence ratio: 1.03 ± 0.0081

Sequence: CGCGTTGTGG
- switch fluorescence ratio: 1.03 ± 0.012

Sequence: CGCTACAATG
- switch fluorescence ratio: 1.0456 ± 0.00099

Sequence: CGCTAGGAGG
- switch fluorescence ratio: 0.997 ± 0.036

Sequence: CGCTAGGGGA
- switch fluorescence ratio: 1.07 ± 0.041

Sequence: CGCTAGGGGG
- switch fluorescence ratio: 1.06 ± 0.026

Sequence: CGCTCAAGGG
- switch fluorescence ratio: 1.031 ± 0.0042

Sequence: CGCTCGTATT
- switch fluorescence ratio: 1.019 ± 0.009

Sequence: CGCTCTGCGT
- switch fluorescence ratio: 1.01 ± 0.033

Sequence: CGCTGAAAGG
- switch fluorescence ratio: 1.02 ± 0.026

Sequence: CGCTGACATT
- switch fluorescence ratio: 1.019 ± 0.0034

Sequence: CGCTGAGAGG
- switch fluorescence ratio: 1 ± 0.027

Sequence: CGCTGCTCGA
- switch fluorescence ratio: 1.06 ± 0.013

Sequence: CGCTGGTTGT
- switch fluorescence ratio: 0.9855 ± 0.0013

Sequence: CGCTTATATC
- switch fluorescence ratio: 2.8 ± 0.32

Sequence: CGCTTATTAA
- switch fluorescence ratio: 1.072 ± 0.0033
